Reference: US7531500B2, “Preventing airway mucus production by administration of EGF-R antagonists” (The Regents of the University of California, priority 1998, dated 2009)

Assays:
[1] = tested on: NCI-H292 cells; test: Immunoassay of MUC5AC protein in NCI-H292 cells (Example 2); type: cell-based, human; conditions: 1 h incubation, protein at 24 h; IL-8 10^-8 M, fMLP 10^-8 M, TNFα 20 ng/ml
[2] = tested on: rat nasal septal epithelium; test: fMLP-induced degranulation and regranulation of goblet cells in rat nasal epithelium; type: in vivo
Procedure: Nasal Tissue Preparation. At various times after inhalation, rats were anesthetized with pentobarbital sodium (65 mg/kg, i.p.). The heart of the animal was exposed, a blunt-ended needle was inserted from the apex of the left ventricle into the ascending aorta, and the systemic circulation was perfused with 1% paraformaldehyde. An incision in the right atrium provided an outlet for the fixative. The eyes, lower jaws, skin, and musculature were removed, and the head was immersed in a large volume of the same fixative for 24 h. […]
Counting of Neutrophils in Nasal Epithelium. Neutrophils were counted in high power fields of the epithelial layer stained with 3,3′-diaminobenzidine at magnification ×400. The number of neutrophils within the nasal sepal epithelium (from the basement membrane to cell apices) was determined by counting the number of nuclear profiles per unit of basal lamina length.
Quantification of Goblet Cell Degranulation and Regranulation. To assess goblet cell degranulation and regranulation, we measured the volume density of Alcian blue/PAS-stained mucosubstances on the mucosal surface epithelium using a semiautomatic imaging system according to a previously published method. […] Images of the nasal epithelium were recorded in high power fields with a phase contrast lens at x400, using an IMAXX Video System (PDI, Redmond, Wash.). […]

[3] = tested on: pathogen-free rats; test: IL-13-induced goblet cell metaplasia in rat airways; type: in vivo
Procedure: Animals were anesthetized with pentobarbital [Nembutal sodium, 50 mg/kg, intraperitoneally (ip), Abbott Laboratories, North Chicago, Ill.] and allowed to breathe spontaneously. Vehicle (phosphate buffer solution, PBS) or IL-13 was instilled intratracheally via a 20-gauge Angiocath catheter (Beckton Dickinson, Sandy, Utah) through the mouth, while the laryngeal area was visualized using a high-intensity illuminator (FiberLite; Dolan Jenner Industries, Inc., Lawrence, Mass.). The […] tissues were examined 48 hours after instillation of IL-13. Various concentrations of IL-13 (recombinant murine IL-13; 5, 50, 100, and 500 ng/rat, R&D systems, Minneapolis, Minn.) were instilled into the trachea in […]. Sterile PBS (200 μl) was instilled into the trachea as controls. For examination of the relationship between IL-13-induced GC metaplasia and activation of EGFR, animals were pretreated 1 d before instillation of IL-13 and daily thereafter with a selective EGFR tyrosine kinase inhibitor (BIBX 1522; 1-30 mg/kg/day, ip; Boehringer Ingelheim, Ingelheim, Germany). Animals were euthanized 48 hours after instillation of IL-13. In preliminary studies, we noted that IL-13 causes leukocyte recruitment into the airways. We hypothesized that leukocyte recruitment results from IL-13-induced chemoattractant release from epithelium, and that this recruitment is involved in the IL-13-induced EGFR cascade leading to GC metaplasia. Groups of animals were euthanized 4, 8, 16, 24, and 48 hours after instillation of IL-13 (500 ng), and leukocytes were counted in airway tissue. […] Sigma chemical Co., St Louis, Mo.] or with a blocking antibody to interleukin-8 (IL-BAb; rabbit anti-human IL-8 antibody; Biosource, Camarillo, Calif.). […] In another series of studies, we instilled IL-8 Ab (10 μg/rat) intratracheally, along with IL-13; we repeated the instillation of anti-human IL-8 blocking antibody at 12 hour intervals until the animals were euthanized. Animals were euthanized with a lethal dose of pentobarbital (Nembutal sodium, 200 mg/kg, ip, Abbott Laboratories, North Chicago, Ill.), and the systemic circulation was perfused with 1% paraformaldehyde in Diethylpyrocarbonate (DEPC, Sigma chemical Co., St Louis, Mo.)-treated PBS via the left ventricle. For frozen sections, […] tissues were removed, placed in 4% paraformaldehyde overnight, and then placed in 30% sucrose for cryoprotection. The tissues were embedded in optimal cutting temperature (OCT, […]., Inc., Torrance, Calif.) compound. For plastic or paraffin sections, tissues were placed in 4% paraformaldehyde overnight, dehydrated with ethanol, and embedded in JB-4 plus monomer solution A (Polysclences, Inc., Warrington, Pa.) or in paraffin. The embedded tissues were cut as cross sections 4 μm thick and placed on glass slides. In all studies, the carina was examined to obtain consistent sampling. We measured AB/PAS-positive areas and total epithelial area, and we expressed the results as the percentage of AB/PAS area to total epithelial area. The analysis was performed with the public domain NIH IMAGE program (developed at the U.S. National Institutes of Health and available by anonymous FTP from zippy.nimh.gov. or floppy disk from the National Technical Information Service, Springfield, Va., part number PB95-500195GEI). […] For immunohistochemical localization of […], we used mouse anti-human IL-8 antibody (1:20; Biosource, Camarillo, Calif.). The sections were then incubated with biotinylated horse anti-mouse IgG (Vector Laboratories, Burlingame, Calif.) at 1:200 dilution for 1 hour at room temperature. Bound antibody was visualized according to standard protocols for avidin-biotin-peroxidase complex method. The measurement of MUC5AC protein also utilized the same method used for quantitative measurement of GC metaplasia in the epithelium. Animals were euthanized 4, 8, 16, 24, and 48 hours after instillation of IL-13 (500 ng), and leukocytes were counted in airway tissue. […]

[4] = tested on: human neutrophils; test: Chemotaxis of human neutrophils (microchemotaxis chamber); type: cell-based; conditions: 10^-10, 10^-9, 5×10^-9 M
Procedure: Human neutrophils were purified from peripheral blood obtained from healthy donors. Neutrophil isolation was performed by standard techniques of Ficoll-Hypaque gradient separation, dextran sedimentation, and hypotonic lysis of erythrocytes. Cells were routinely >95% viable by trypan blue dye exclusion. To prevent endotoxin contamination, all solutions were passed through a […]. Chemotactic activity was assessed in 48-well microchemotaxis chamber (Neuroprobe, Cabin John, Md.), utilizing the leading front technique. Migration was measured as net movement of neutrophils ([…]) through a nitrocellulose filter (pore size, 3 μm) after 25 min at 37° C. The effect of IL-13 (10^−10, 10^−9, and 5×10^−9 M; recombinant human IL-13, R&D systems, Minneapolis, Minn.) is expressed as the distance traveled, compared to the random migration of neutrophils incubated with RPMI 1640.

[5] = IL-13 5, 50, 100, 500 ng/rat intratracheal, 48 hours, dose-dependently

Molecule: CSCC[C@H](NC=O)C(=O)N[C@@H](CC(C)C)C(=O)N[C@@H](Cc1ccccc1)C(=O)O [fMLP, N-formyl-methionyl-leucyl-phenylalanine]
- MUC5AC synthesis, stimulus alone without neutrophils [1]: no effect
- area of MUC5AC-positive immunostaining ([2]; 4 h after fMLP aerosol (10^-7 M)): markedly decreased
- AB/PAS-stained area of nasal epithelium ([2]; 4 h after fMLP aerosol (10^-7 M) intranasally for 5 min): markedly decreased

B1: IL-13: recombinant murine IL-13 in rats; recombinant human IL-13 in chemotaxis (R&D systems) (protein, UniProt P20109 19-131, looked up)
Interleukin-13: APGPVPRSVSLPLTLKELIEELSNITQDQTPLCNGSMVWSVDLAAGGFCVALDSLTNISNCNAIYRTQRILHGLCNRKAPTTVSSLPDTKIEVAHFITKLLSYTKQLFRHGPF
- leukocyte recruitment into airway epithelium ([3]; IL-13 500 ng): time-dependent leukocyte recruitment
- start of leukocyte recruitment ([3]; IL-13 500 ng): approximately 8 hours
- time of maximal leukocyte recruitment ([3]; IL-13 500 ng): ≤ 24 h
- AB/PAS staining in rat airway epithelium [3, 5]: increased
- MUC5AC staining in rat airway epithelium [3, 5]: increased
- EGFR expression in airway epithelium ([3]; instillation of IL-13): increased
- staining of airway epithelium with anti-human IL-8 antibody (IL-8-like chemoattractant) ([3]; instillation of IL-13): positive staining
- TNFα expression in rat airway tissue ([3]; instillation of IL-13, mainly in infiltrating neutrophils): induced
- neutrophil movement [4]: decreased neutrophil movement dose-dependently
